*1 amine or outer side, *2 acyl side, *3 side chain or, on linkers, in order; H or OH if unused. Side-chain parts run from the residue outwards. The star is where a group is joined. C18 diacid = O=C(O)CCCCCCCCCCCCCCCCC(=O)*; γGlu = O=C(O)[C@H](CCC(=O)[*:2])N[*:1]; Isovaleryl = CC(C)CC(=O)*; AEEA = NCCOCCOCC(=O)O
T1: human neuropeptide Y2 receptor (human, UniProt P49146 1-381)
T1 construct: whole, on cells; also called hNPY2 receptor; hNPY2-R
T1 sequence (looked up): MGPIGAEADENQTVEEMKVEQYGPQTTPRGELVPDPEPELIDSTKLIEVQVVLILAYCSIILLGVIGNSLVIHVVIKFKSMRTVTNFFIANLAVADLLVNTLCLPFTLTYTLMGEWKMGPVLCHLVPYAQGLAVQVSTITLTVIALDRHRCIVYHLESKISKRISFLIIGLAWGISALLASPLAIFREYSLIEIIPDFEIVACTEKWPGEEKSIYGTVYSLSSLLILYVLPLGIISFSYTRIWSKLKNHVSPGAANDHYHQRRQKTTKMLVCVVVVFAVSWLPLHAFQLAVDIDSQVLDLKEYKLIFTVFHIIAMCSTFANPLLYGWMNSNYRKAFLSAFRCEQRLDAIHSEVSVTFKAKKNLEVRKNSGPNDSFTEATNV


Target: T1, human neuropeptide Y2 receptor
Assay: radioligand competition (125I-PYY(1-36)), hNPY2R membranes
In short: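 Commercial human Y2 receptor membranes (0.5 μg protein/well) were incubated with peptide for 2 h at room temperature in 50 mM HEPES, 5 mM MgCl₂, 1 mM CaCl₂, pH 7.4, with 0.2% ovalbumin. Bound radioligand was separated on PEI-soaked GF/C filters and counted by scintillation, and IC₅₀ came from nonlinear sigmoidal regression.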

Ki [nM]	Binder
1.49	Isovaleryl-APEK([AEEA-AEEA-γGlu-C18 diacid])PEEDSSPEELQRYYVALRHYYNWLTRQRY-NH2 (SMILES CC(C)CC(=O)N[C@@H](C)C(=O)N1CCC[C@H]1C(=O)N[C@@H](CCC(=O)O)C(=O)N[C@@H](CCCCNC(=O)COCCOCCNC(=O)COCCOCCNC(=O)CC[C@H](NC(=O)CCCCCCCCCCCCCCCCC(=O)O)C(=O)O)C(=O)N1CCC[C@H]1C(=O)N[C@@H](CCC(=O)O)C(=O)N[C@@H](CCC(=O)O)C(=O)N[C@@H](CC(=O)O)C(=O)N[C@@H](CO)C(=O)N[C@@H](CO)C(=O)N1CCC[C@H]1C(=O)N[C@@H](CCC(=O)O)C(=O)N[C@@H](CCC(=O)O)C(=O)N[C@@H](CC(C)C)C(=O)N[C@@H](CCC(N)=O)C(=O)N[C@@H](CCCNC(=N)N)C(=O)N[C@@H](Cc1ccc(O)cc1)C(=O)N[C@@H](Cc1ccc(O)cc1)C(=O)N[C@H](C(=O)N[C@@H](C)C(=O)N[C@@H](CC(C)C)C(=O)N[C@@H](CCCNC(=N)N)C(=O)N[C@@H](Cc1c[nH]cn1)C(=O)N[C@@H](Cc1ccc(O)cc1)C(=O)N[C@@H](Cc1ccc(O)cc1)C(=O)N[C@@H](CC(N)=O)C(=O)N[C@@H](Cc1c[nH]c2ccccc12)C(=O)N[C@@H](CC(C)C)C(=O)N[C@H](C(=O)N[C@@H](CCCNC(=N)N)C(=O)N[C@@H](CCC(N)=O)C(=O)N[C@@H](CCCNC(=N)N)C(=O)N[C@@H](Cc1ccc(O)cc1)C(N)=O)[C@@H](C)O)C(C)C) [Compound 218]
1.21	Isovaleryl-APEK([AEEA-AEEA-γGlu-C18 diacid])PEEAASPEETQRYYVSLRHYYNWLTRQRY-NH2 (SMILES CC(C)CC(=O)N[C@@H](C)C(=O)N1CCC[C@H]1C(=O)N[C@@H](CCC(=O)O)C(=O)N[C@@H](CCCCNC(=O)COCCOCCNC(=O)COCCOCCNC(=O)CC[C@H](NC(=O)CCCCCCCCCCCCCCCCC(=O)O)C(=O)O)C(=O)N1CCC[C@H]1C(=O)N[C@@H](CCC(=O)O)C(=O)N[C@@H](CCC(=O)O)C(=O)N[C@@H](C)C(=O)N[C@@H](C)C(=O)N[C@@H](CO)C(=O)N1CCC[C@H]1C(=O)N[C@@H](CCC(=O)O)C(=O)N[C@@H](CCC(=O)O)C(=O)N[C@H](C(=O)N[C@@H](CCC(N)=O)C(=O)N[C@@H](CCCNC(=N)N)C(=O)N[C@@H](Cc1ccc(O)cc1)C(=O)N[C@@H](Cc1ccc(O)cc1)C(=O)N[C@H](C(=O)N[C@@H](CO)C(=O)N[C@@H](CC(C)C)C(=O)N[C@@H](CCCNC(=N)N)C(=O)N[C@@H](Cc1c[nH]cn1)C(=O)N[C@@H](Cc1ccc(O)cc1)C(=O)N[C@@H](Cc1ccc(O)cc1)C(=O)N[C@@H](CC(N)=O)C(=O)N[C@@H](Cc1c[nH]c2ccccc12)C(=O)N[C@@H](CC(C)C)C(=O)N[C@H](C(=O)N[C@@H](CCCNC(=N)N)C(=O)N[C@@H](CCC(N)=O)C(=O)N[C@@H](CCCNC(=N)N)C(=O)N[C@@H](Cc1ccc(O)cc1)C(N)=O)[C@@H](C)O)C(C)C)[C@@H](C)O) [Compound 226]
2.99	Isovaleryl-APEK([AEEA-AEEA-γGlu-C18 diacid])PEEAASAEELQRYYVSLRHYYNWLTRQRY-NH2 (SMILES CC(C)CC(=O)N[C@@H](C)C(=O)N1CCC[C@H]1C(=O)N[C@@H](CCC(=O)O)C(=O)N[C@@H](CCCCNC(=O)COCCOCCNC(=O)COCCOCCNC(=O)CC[C@H](NC(=O)CCCCCCCCCCCCCCCCC(=O)O)C(=O)O)C(=O)N1CCC[C@H]1C(=O)N[C@@H](CCC(=O)O)C(=O)N[C@@H](CCC(=O)O)C(=O)N[C@@H](C)C(=O)N[C@@H](C)C(=O)N[C@@H](CO)C(=O)N[C@@H](C)C(=O)N[C@@H](CCC(=O)O)C(=O)N[C@@H](CCC(=O)O)C(=O)N[C@@H](CC(C)C)C(=O)N[C@@H](CCC(N)=O)C(=O)N[C@@H](CCCNC(=N)N)C(=O)N[C@@H](Cc1ccc(O)cc1)C(=O)N[C@@H](Cc1ccc(O)cc1)C(=O)N[C@H](C(=O)N[C@@H](CO)C(=O)N[C@@H](CC(C)C)C(=O)N[C@@H](CCCNC(=N)N)C(=O)N[C@@H](Cc1c[nH]cn1)C(=O)N[C@@H](Cc1ccc(O)cc1)C(=O)N[C@@H](Cc1ccc(O)cc1)C(=O)N[C@@H](CC(N)=O)C(=O)N[C@@H](Cc1c[nH]c2ccccc12)C(=O)N[C@@H](CC(C)C)C(=O)N[C@H](C(=O)N[C@@H](CCCNC(=N)N)C(=O)N[C@@H](CCC(N)=O)C(=O)N[C@@H](CCCNC(=N)N)C(=O)N[C@@H](Cc1ccc(O)cc1)C(N)=O)[C@@H](C)O)C(C)C) [Compound 220]
4.77	Isovaleryl-APEK([AEEA-AEEA-γGlu-C18 diacid])PEEAAEPEELQRYYVSLRHYYNWLTRQRY-NH2 (SMILES CC(C)CC(=O)N[C@@H](C)C(=O)N1CCC[C@H]1C(=O)N[C@@H](CCC(=O)O)C(=O)N[C@@H](CCCCNC(=O)COCCOCCNC(=O)COCCOCCNC(=O)CC[C@H](NC(=O)CCCCCCCCCCCCCCCCC(=O)O)C(=O)O)C(=O)N1CCC[C@H]1C(=O)N[C@@H](CCC(=O)O)C(=O)N[C@@H](CCC(=O)O)C(=O)N[C@@H](C)C(=O)N[C@@H](C)C(=O)N[C@@H](CCC(=O)O)C(=O)N1CCC[C@H]1C(=O)N[C@@H](CCC(=O)O)C(=O)N[C@@H](CCC(=O)O)C(=O)N[C@@H](CC(C)C)C(=O)N[C@@H](CCC(N)=O)C(=O)N[C@@H](CCCNC(=N)N)C(=O)N[C@@H](Cc1ccc(O)cc1)C(=O)N[C@@H](Cc1ccc(O)cc1)C(=O)N[C@H](C(=O)N[C@@H](CO)C(=O)N[C@@H](CC(C)C)C(=O)N[C@@H](CCCNC(=N)N)C(=O)N[C@@H](Cc1c[nH]cn1)C(=O)N[C@@H](Cc1ccc(O)cc1)C(=O)N[C@@H](Cc1ccc(O)cc1)C(=O)N[C@@H](CC(N)=O)C(=O)N[C@@H](Cc1c[nH]c2ccccc12)C(=O)N[C@@H](CC(C)C)C(=O)N[C@H](C(=O)N[C@@H](CCCNC(=N)N)C(=O)N[C@@H](CCC(N)=O)C(=O)N[C@@H](CCCNC(=N)N)C(=O)N[C@@H](Cc1ccc(O)cc1)C(N)=O)[C@@H](C)O)C(C)C) [Compound 223]
7.6	Isovaleryl-APEK([AEEA-AEEA-γGlu-C18 diacid])PEEEAAPEELQRYYVSLRHYYNWLTRQRY-NH2 (SMILES CC(C)CC(=O)N[C@@H](C)C(=O)N1CCC[C@H]1C(=O)N[C@@H](CCC(=O)O)C(=O)N[C@@H](CCCCNC(=O)COCCOCCNC(=O)COCCOCCNC(=O)CC[C@H](NC(=O)CCCCCCCCCCCCCCCCC(=O)O)C(=O)O)C(=O)N1CCC[C@H]1C(=O)N[C@@H](CCC(=O)O)C(=O)N[C@@H](CCC(=O)O)C(=O)N[C@@H](CCC(=O)O)C(=O)N[C@@H](C)C(=O)N[C@@H](C)C(=O)N1CCC[C@H]1C(=O)N[C@@H](CCC(=O)O)C(=O)N[C@@H](CCC(=O)O)C(=O)N[C@@H](CC(C)C)C(=O)N[C@@H](CCC(N)=O)C(=O)N[C@@H](CCCNC(=N)N)C(=O)N[C@@H](Cc1ccc(O)cc1)C(=O)N[C@@H](Cc1ccc(O)cc1)C(=O)N[C@H](C(=O)N[C@@H](CO)C(=O)N[C@@H](CC(C)C)C(=O)N[C@@H](CCCNC(=N)N)C(=O)N[C@@H](Cc1c[nH]cn1)C(=O)N[C@@H](Cc1ccc(O)cc1)C(=O)N[C@@H](Cc1ccc(O)cc1)C(=O)N[C@@H](CC(N)=O)C(=O)N[C@@H](Cc1c[nH]c2ccccc12)C(=O)N[C@@H](CC(C)C)C(=O)N[C@H](C(=O)N[C@@H](CCCNC(=N)N)C(=O)N[C@@H](CCC(N)=O)C(=O)N[C@@H](CCCNC(=N)N)C(=O)N[C@@H](Cc1ccc(O)cc1)C(N)=O)[C@@H](C)O)C(C)C) [Compound 219]
4.64	Isovaleryl-APEK([AEEA-AEEA-γGlu-C18 diacid])PGEEASPEELEQYYVSLRHYYNWLTRQRY-NH2 (SMILES CC(C)CC(=O)N[C@@H](C)C(=O)N1CCC[C@H]1C(=O)N[C@@H](CCC(=O)O)C(=O)N[C@@H](CCCCNC(=O)COCCOCCNC(=O)COCCOCCNC(=O)CC[C@H](NC(=O)CCCCCCCCCCCCCCCCC(=O)O)C(=O)O)C(=O)N1CCC[C@H]1C(=O)NCC(=O)N[C@@H](CCC(=O)O)C(=O)N[C@@H](CCC(=O)O)C(=O)N[C@@H](C)C(=O)N[C@@H](CO)C(=O)N1CCC[C@H]1C(=O)N[C@@H](CCC(=O)O)C(=O)N[C@@H](CCC(=O)O)C(=O)N[C@@H](CC(C)C)C(=O)N[C@@H](CCC(=O)O)C(=O)N[C@@H](CCC(N)=O)C(=O)N[C@@H](Cc1ccc(O)cc1)C(=O)N[C@@H](Cc1ccc(O)cc1)C(=O)N[C@H](C(=O)N[C@@H](CO)C(=O)N[C@@H](CC(C)C)C(=O)N[C@@H](CCCNC(=N)N)C(=O)N[C@@H](Cc1c[nH]cn1)C(=O)N[C@@H](Cc1ccc(O)cc1)C(=O)N[C@@H](Cc1ccc(O)cc1)C(=O)N[C@@H](CC(N)=O)C(=O)N[C@@H](Cc1c[nH]c2ccccc12)C(=O)N[C@@H](CC(C)C)C(=O)N[C@H](C(=O)N[C@@H](CCCNC(=N)N)C(=O)N[C@@H](CCC(N)=O)C(=O)N[C@@H](CCCNC(=N)N)C(=O)N[C@@H](Cc1ccc(O)cc1)C(N)=O)[C@@H](C)O)C(C)C) [Compound 224]
